According to patent publication US20250369024A1, “Acyloin Condensation Reactions, Enzymes, and Products Thereof” (Mojia Biotech Pte. Ltd., priority 2023, published 2025):

Tests used:
Format in all cases: cell-based, E. coli
Succinic semialdehyde = assay: HACS screening, succinic semialdehyde-C1 condensation (resting cells), 2-hydroxyglutaric acid; conditions: 20 mM succinic semialdehyde and 20 mM formate, 3 hours
From the text: (§1) To implement the C1 elongation pathway for 2-hydroxyglutaric acid production in vivo, we engineered vectors to independently control expression of various HACS candidates and the acyl-CoA transferase from Clostridium aminobutyricum (CaAbfT), with HACS under control of the IPTG-inducible T7 promoter in pCDFDuet-1 and CaAbfT under control of a cumate-inducible T5 promoter in pETDuet-1. As a host for these vectors, we used an engineered strain of E. coli based on MG1655(DE3) with knockouts for formaldehyde (ΔfrmA) and formate (ΔfdhF ΔfdnG ΔfdoG) oxidation as well as for glycolate utilization (ΔglcD).
(§2) In vivo product synthesis was conducted using M9 minimal media (6.78 g/L Na2HPO4, 3 g/L KH2PO4, 1 g/L NH4Cl, 0.5 g/L NaCl, 2 mM MgSO4, 100 μM CaCl2), and 15 μM thiamine-HCl) unless otherwise stated. Cells were initially grown in 96-deep well plates (USA Scientific, Ocala, FL) containing 0.5 mL of the above media further supplemented with 20 g/L glycerol, 10 g/L tryptone, and 5 g/L yeast extract. […]
(§3) Cells from the above pre-cultures were then centrifuged (4000 rpm, 22° C.), washed with the above minimal media without any carbon source, and resuspended with 1 mL of above minimal media containing indicated amounts of carbon source. […] After incubation at 30° C. for 3 hours, the cells were pelleted by centrifugation and the media was analyzed using HPLC.

Isovaleraldehyde = assay: HACS screening, isovaleraldehyde-C1 condensation (resting cells), leucic acid; conditions: 20 mM isovaleraldehyde and 20 mM formate, 3 hours
From the text: as §1, with “leucic” for “2-hydroxyglutaric”
as §2, §3

glyoxylic acid = assay: HACS screening, glyoxylic acid-C1 condensation (resting cells), tartronic acid; conditions: 5 mM glyoxylic acid and 20 mM formate; 1 hour
From the text: as §1, with “tartronic” for “2-hydroxyglutaric”
as §2, with “containing 0.2” for “containing 0.5”
as §3, with “1 hour,” for “3 hours,”

B1: RuHACL: Engineered 2-hydroxyphytanoyl-CoA lyase [Rhodospirillales bacterium URHD0017], SEQ ID NO: 1 (protein)
chain: MSEVDGATLIARSLKQQGIDHLFGVVGFPITAIAAAAQKEGVAYLGMRNEQSAAYAAAAYGYLTGRPGAAVVVTGPGVVHGLSGLANAQQNCWPMILIGGASETYRGGMGAFQEERQVLIASPFCKFAHGIESVARIPFYVEMATRNAIYGRPGATYLDMPDDIIRGTCETDKIAQAERVPEAPRSVAPAENVEAALDLLEKAQRPLVLLGKGMAWSRGEDEVRAFIERTQVPFVRSPMGKGVMPDDHPLSASAARTLALQQADVIFLMGARLNWIFHFGLPPRYAKDVKVIQLDIAPEEIGHNKPTEVALVGDGKAIMAQLNKALVNRQWFHPKDTPWRQALTKKAAENVATIKPQVDDDQGPAGYYRALRDVAAWMPKNAILSAEGANTMDIGLTQLASSNARSVLNAGTYGTMGVGLGQAIAAAVSDPSRPVIHLSGDSAIGFSGMEMETLVRYNLPVKIVVLNNGGIGPGMPEIPENPMFNLKPNALIYGARYDKVMEAFGGKGIFVKEPKDIRKALDEAMAFKGPALVNVVLSQGSTRKAQQFAWHS
modifications: Rhodospirillales bacterium URHD0017 engineered 2-hydroxyphytanoyl-CoA lyase
- Product flux, substrate Succinic semialdehyde, product 2-hydroxyglutarate (Succinic semialdehyde): 15.2 μM/OD/h
- Product flux, substrate Isovaleraldehyde, product Leucic acid (Isovaleraldehyde): 12.5 μM/OD/h
- tartronic acid productivity of best candidate (glyoxylic acid): up to 13 μM/hr per OD600
